# Measurements reported in US20170190753A1 (LABORATOIRE FRANCAIS DU FRACTIONNEMENT ET DES …, published 2017).
# Biological target: C3 convertase complex (UniProt P01024 23-1663; P00751 260-764)
# Assay: cell-based or functional assay
# Wherever C3 convertase activity % of the control is given: test concentration or dose not given here.
# C3 convertase complex, sequence (P01024 23-1663, chain 1 of 2): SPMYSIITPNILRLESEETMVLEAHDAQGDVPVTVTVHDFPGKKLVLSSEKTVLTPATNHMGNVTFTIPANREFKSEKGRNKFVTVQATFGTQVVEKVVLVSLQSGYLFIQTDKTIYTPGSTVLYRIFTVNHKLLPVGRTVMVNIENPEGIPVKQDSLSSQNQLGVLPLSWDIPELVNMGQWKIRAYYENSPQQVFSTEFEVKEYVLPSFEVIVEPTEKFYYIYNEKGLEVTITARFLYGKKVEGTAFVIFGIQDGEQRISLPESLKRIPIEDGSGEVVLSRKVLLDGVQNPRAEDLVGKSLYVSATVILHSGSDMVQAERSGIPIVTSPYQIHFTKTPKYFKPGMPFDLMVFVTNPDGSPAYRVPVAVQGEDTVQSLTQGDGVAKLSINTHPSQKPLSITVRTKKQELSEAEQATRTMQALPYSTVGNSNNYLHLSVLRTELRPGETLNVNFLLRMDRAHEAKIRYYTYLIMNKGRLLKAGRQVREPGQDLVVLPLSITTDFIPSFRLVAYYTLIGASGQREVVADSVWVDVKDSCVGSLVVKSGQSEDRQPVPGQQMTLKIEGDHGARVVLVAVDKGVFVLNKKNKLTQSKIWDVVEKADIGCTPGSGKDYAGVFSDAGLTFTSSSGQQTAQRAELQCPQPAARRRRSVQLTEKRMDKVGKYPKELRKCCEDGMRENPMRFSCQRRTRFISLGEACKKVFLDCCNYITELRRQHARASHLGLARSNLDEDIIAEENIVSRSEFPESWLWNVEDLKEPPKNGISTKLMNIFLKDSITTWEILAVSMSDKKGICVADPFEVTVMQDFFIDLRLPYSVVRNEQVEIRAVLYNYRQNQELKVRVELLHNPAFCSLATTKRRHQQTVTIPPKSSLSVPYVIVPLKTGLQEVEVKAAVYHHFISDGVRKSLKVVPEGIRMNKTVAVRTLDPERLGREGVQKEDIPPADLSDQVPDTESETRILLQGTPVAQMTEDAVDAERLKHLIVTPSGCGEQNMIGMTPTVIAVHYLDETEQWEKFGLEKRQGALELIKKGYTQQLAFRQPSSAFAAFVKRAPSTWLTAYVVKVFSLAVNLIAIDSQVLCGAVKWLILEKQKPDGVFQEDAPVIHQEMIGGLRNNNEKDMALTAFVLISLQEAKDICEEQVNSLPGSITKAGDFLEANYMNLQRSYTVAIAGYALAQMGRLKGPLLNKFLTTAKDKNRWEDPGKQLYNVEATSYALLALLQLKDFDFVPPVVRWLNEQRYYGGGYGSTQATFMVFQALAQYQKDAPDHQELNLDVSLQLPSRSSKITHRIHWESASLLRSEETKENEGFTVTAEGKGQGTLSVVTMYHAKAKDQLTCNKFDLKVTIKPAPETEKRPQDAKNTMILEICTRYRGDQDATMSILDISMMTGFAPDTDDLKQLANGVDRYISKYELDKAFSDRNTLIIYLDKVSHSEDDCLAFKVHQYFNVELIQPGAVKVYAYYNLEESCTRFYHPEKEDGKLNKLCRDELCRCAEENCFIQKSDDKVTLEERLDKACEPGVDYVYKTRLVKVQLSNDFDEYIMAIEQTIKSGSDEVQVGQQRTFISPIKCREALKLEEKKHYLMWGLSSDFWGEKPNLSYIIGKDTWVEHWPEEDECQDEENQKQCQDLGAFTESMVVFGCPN
# C3 convertase complex, sequence (P00751 260-764, chain 2 of 2): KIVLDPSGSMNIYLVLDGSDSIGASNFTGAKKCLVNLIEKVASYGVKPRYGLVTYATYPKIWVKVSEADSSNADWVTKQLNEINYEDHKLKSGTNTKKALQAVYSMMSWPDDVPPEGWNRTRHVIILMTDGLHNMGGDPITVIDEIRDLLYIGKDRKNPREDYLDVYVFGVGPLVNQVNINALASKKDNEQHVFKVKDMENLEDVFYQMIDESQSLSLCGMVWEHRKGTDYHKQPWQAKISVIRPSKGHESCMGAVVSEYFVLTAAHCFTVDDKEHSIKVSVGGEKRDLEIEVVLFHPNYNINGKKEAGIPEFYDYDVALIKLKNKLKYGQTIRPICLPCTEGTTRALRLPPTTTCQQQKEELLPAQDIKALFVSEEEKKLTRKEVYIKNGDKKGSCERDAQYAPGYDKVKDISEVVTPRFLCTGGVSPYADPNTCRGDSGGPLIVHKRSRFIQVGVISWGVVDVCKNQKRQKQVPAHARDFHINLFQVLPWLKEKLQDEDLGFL
Binder,C3 convertase activity % of the control,C3 convertase activity IC50 [µg/mL]
pCEP4-1NT7-14CT20 (other) EDCNELPPRRNTEILTGSWSDQTYPEGTQAIYKCRPGYRSLGNVIMVCRKGEWVALNPLRKCQKRPCGHPGDTPFGTFTLTGGNVFEYGVKAVYTCNEGYQLLGEINYRECDTDGWTNDIPICEVVKCLPVTAPENGKIVSSAMEPDREYHFGQAVRFVCNSGYKIEGDEEMHCSDDGFWSKEKPKCVEISCKSPDVINGSPISQKIIYKENERFQYKCNMGYEYSERGDAVCTESGWRPLPSCEEKSCDNPYIPNGDYSPLRIKHRTGDEITYQCRNGFYPATRGNTAKCTSTGWIPAPRCTLKPCDYPDIKHGGLYHENMRRPYFPVAVGKYYSYYCDEHFETPSGSYWDHIHCTQDGWSPAVPCLRKCYFPYLENGYNQNYGRKFVQGKSIDVACHPGYALPKAQTTVTCMENGWSPTPRCIRVKTGASGCPPPPQIPNSHNMTTTLNYRDGEKVSVLCQENYLIQEGEEITCKDGRWQSIPLCVEKIPCSQPPQIEHGTINSSRSSQESYAHGTKLSYTCEGGFRISEENETTCYMGKWSSPPQCEGLPCKSPPEISHGVVAHMSDSYQYGEEVTYKCFEGFGIDGPAIAKCLGEKWSHPPSCIKTDCLSLPSFENAIPMGEKKDVYKAGEQVTYTCATYYKMDGASNVTCINSRWTGRPTCRDTSCVNPPTVQNAYIVSRQMSKYPSGERVRYQCRSPYEMFGDEEVMCLNGNWTEPPQCKDSTGKCGPPPPIDNGDITSFPLSVYAPASSVEYQCQNLYQLEGNKRITCRNGQWSEPPKCLHPCVISREIMENYNIALRWTAKQKLYSRTGESVEFVCKRGYRLSSRSHTLRTTCWDGKLEYPTCAKRGGSGHHHHHH,104 % of the control,0.0645
pCEP4-1NT4-16CT20 (other) EDCNELPPRRNTEILTGSWSDQTYPEGTQAIYKCRPGYRSLGNVIMVCRKGEWVALNPLRKCQKRPCGHPGDTPFGTFTLTGGNVFEYGVKAVYTCNEGYQLLGEINYRECDTDGWTNDIPICEVVKCLPVTAPENGKIVSSAMEPDREYHFGQAVRFVCNSGYKIEGDEEMHCSDDGFWSKEKPKCVEISCKSPDVINGSPISQKIIYKENERFQYKCNMGYEYSERGDAVCTESGWRPLPSCEEKSGASGCKSPPEISHGVVAHMSDSYQYGEEVTYKCFEGFGIDGPAIAKCLGEKWSHPPSCIKTDCLSLPSFENAIPMGEKKDVYKAGEQVTYTCATYYKMDGASNVTCINSRWTGRPTCRDTSCVNPPTVQNAYIVSRQMSKYPSGERVRYQCRSPYEMFGDEEVMCLNGNWTEPPQCKDSTGKCGPPPPIDNGDITSFPLSVYAPASSVEYQCQNLYQLEGNKRITCRNGQWSEPPKCLHPCVISREIMENYNIALRWTAKQKLYSRTGESVEFVCKRGYRLSSRSHTLRTTCWDGKLEYPTCAKRGGSGHHHHHH,239 % of the control,0.0281
